Laboratory results from article doi:10.1101/2025.03.09.642192 (2025).

Legend:
[1] = biological target: T1, purified hexon protein from ChAdOx1 (chimpanzee adenovirus Y25 (ChAdOx1)); experiment: SPR
T1 chain: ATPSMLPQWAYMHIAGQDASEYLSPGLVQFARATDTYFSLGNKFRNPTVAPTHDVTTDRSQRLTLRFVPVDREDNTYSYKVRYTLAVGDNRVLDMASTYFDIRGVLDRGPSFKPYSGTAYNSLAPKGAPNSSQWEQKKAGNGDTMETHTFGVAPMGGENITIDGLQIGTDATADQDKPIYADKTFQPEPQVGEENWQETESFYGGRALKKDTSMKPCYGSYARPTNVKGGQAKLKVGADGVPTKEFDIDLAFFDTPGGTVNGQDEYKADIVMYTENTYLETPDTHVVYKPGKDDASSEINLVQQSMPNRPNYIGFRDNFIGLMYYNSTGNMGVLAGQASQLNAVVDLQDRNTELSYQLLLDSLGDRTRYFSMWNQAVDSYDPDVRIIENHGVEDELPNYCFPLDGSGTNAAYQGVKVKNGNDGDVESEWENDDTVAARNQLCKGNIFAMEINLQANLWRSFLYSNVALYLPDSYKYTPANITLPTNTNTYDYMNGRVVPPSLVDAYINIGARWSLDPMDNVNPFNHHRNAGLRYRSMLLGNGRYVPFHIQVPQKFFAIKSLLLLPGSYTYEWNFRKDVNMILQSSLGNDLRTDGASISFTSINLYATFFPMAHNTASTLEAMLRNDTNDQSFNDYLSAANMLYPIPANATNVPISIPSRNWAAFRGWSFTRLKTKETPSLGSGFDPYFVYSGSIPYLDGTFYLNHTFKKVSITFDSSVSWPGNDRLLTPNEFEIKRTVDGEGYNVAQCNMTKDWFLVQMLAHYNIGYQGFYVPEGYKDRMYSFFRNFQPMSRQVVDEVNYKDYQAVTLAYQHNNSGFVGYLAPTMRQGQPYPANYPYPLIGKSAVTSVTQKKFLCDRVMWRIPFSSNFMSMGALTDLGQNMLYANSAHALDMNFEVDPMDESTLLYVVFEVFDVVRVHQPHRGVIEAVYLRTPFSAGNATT

HAdV-C5 hexon protein = biological target: T2, HAdV-C5 hexon protein (HAdV-C5, UniProt P04133 1-952); experiment: SPR
T2 chain: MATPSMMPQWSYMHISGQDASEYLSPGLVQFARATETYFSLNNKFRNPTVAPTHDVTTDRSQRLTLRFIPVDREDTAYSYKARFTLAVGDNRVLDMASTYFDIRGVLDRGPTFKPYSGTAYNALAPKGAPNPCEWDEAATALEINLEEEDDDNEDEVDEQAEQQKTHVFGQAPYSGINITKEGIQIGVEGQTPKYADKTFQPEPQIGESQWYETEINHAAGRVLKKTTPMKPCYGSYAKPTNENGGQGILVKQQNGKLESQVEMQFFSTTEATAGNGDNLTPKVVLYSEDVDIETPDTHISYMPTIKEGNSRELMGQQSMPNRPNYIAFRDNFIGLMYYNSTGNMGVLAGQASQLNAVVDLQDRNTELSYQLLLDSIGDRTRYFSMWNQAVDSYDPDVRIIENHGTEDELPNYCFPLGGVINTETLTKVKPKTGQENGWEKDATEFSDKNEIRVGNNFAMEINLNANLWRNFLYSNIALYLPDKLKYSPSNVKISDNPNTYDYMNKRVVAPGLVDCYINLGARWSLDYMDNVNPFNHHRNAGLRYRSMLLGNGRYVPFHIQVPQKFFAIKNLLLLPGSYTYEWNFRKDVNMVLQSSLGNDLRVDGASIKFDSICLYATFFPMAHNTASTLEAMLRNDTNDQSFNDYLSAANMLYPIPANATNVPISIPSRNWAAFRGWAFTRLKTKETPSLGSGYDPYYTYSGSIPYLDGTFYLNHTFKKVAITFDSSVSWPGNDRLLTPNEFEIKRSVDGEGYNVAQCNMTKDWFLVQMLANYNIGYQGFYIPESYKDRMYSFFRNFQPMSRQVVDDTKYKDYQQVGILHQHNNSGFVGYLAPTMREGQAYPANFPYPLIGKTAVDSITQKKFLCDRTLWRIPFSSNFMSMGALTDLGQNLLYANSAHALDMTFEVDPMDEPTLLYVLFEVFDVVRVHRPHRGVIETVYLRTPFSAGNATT

B1: platelet factor 4 (PF4) (natural protein)
chain: EAEEDGDLQCLCVKTTSQVRPRHITSLEVIKAGPHCPTAQLIATLKNGRKICLDLQAPLYKKIIKKLLES
- koff [1]: 0.0106 s⁻¹
- koff (HAdV-C5 hexon protein): 0.0213 s⁻¹
